These results are taken from patent US7183387 (Genentech, dated 2007).

In experiment [1] the target is T1, human FcγRIA α subunit extracellular domain-His6-GST fusion (human, UniProt P12314 16-292).
T1 construct: extracellular domain; also called GST-FcγRIA; CD64; not shown: glutathione S transferase (GST)
The experiment in a line: FcγRI ELISA, E27 background. Background: In an ELISA, binding on a coated surface is turned into a signal by an enzyme label.

For experiment [2], the target named is T2, human neonatal Fc receptor (FcRn), biotinylated (human, UniProt P55899 24-297; P61769 21-119, biotinylated (biotin-X-NHS)).
T2 construct: captured on streptavidin plates
T2 sequence (P55899 24-297 limits assumed, chain 1 of 2): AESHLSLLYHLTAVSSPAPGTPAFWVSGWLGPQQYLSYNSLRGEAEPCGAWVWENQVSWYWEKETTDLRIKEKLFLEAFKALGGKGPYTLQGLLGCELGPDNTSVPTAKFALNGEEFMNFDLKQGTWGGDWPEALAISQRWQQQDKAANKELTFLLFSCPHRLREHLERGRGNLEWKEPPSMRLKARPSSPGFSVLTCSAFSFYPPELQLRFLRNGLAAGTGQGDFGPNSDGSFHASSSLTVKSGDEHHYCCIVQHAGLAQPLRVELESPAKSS
T2 sequence (P61769 21-119 limits assumed, chain 2 of 2): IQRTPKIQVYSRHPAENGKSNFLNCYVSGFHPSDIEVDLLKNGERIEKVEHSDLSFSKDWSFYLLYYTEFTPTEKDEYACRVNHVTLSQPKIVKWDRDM
The experiment is described as follows: FcRn ELISA (E27 background by paragraph 363).

Experiment [3] has as its target T3, human FcγRIIA-Arg131 α subunit extracellular domain-His6-GST fusion (human, UniProt P12318 34-217).
T3 construct: extracellular domain; also called FcγRIIA-R131; not shown: glutathione S transferase (GST)
T3 sequence: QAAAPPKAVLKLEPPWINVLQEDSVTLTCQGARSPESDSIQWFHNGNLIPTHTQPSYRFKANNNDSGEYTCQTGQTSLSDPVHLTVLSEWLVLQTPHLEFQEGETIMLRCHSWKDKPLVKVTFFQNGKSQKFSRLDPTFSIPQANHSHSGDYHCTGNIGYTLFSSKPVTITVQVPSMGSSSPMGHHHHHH
The experiment is described as follows: immune complex ELISA, E27 background.

The target in experiment [4] is T4, human FcγRIIB α subunit extracellular domain-His6-GST fusion (human, UniProt P31994 43-217).
T4 construct: extracellular domain; also called CD32; not shown: glutathione S transferase (GST)
T4 sequence: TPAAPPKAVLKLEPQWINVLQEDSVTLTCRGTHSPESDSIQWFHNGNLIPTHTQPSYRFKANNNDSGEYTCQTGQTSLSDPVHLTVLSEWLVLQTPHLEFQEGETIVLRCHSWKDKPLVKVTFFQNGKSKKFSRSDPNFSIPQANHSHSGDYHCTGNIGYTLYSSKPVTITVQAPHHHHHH
The experiment is described as follows: immune complex ELISA, E27 background.

The target of experiment [5] is T5, human FcγRIIIA-Phe158 α subunit extracellular domain-His6-GST fusion (human, UniProt P08637 17-208).
T5 construct: extracellular domain; also called FcγRIIIA-F158; CD16; not shown: glutathione S transferase (GST)
T5 sequence (P08637 other isoform, or with tags, fused parts or gaps): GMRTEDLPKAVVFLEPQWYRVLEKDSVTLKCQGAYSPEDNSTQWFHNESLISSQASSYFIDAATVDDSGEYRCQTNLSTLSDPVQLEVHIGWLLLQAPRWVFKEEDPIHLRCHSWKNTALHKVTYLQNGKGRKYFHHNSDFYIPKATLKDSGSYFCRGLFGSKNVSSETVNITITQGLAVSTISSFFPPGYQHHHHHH
The experiment is described as follows: immune complex ELISA, E27 background.

The target of experiment [6] is T1, human FcγRIA α subunit extracellular …. The experiment is described as follows: FcγRI ELISA and THP-1 cells, averaged.
The target in experiment [7] is T3, human FcγRIIA-Arg131 α subunit …. The experiment in a line: hexamer ELISA.
Experiment [8] has as its target T4, human FcγRIIB α subunit extracellular …. The experiment is described as follows: hexamer ELISA.
For experiment [9], the target named is T5, human FcγRIIIA-Phe158 α subunit …. The experiment is described as follows: hexamer ELISA.
The target of experiment [10] is T2, human neonatal Fc receptor (FcRn), …. The experiment is described as follows: FcRn ELISA, pH 6.0.
Procedure: (§1) FcRn Binding ELISA: For measuring FcRn binding activity of IgG variants, ELISA plates were coated with 2 µg/ml streptavidin (Zymed, South San Francisco) in 50 mM carbonate buffer, pH 9.6, at 4° C. overnight and blocked with PBS-0.5% BSA, pH 7.2 at room temperature for one hour. Biotinylated FcRn (prepared using biotin-X-NHS from Research Organics, Cleveland, Ohio and used at 1–2 µg/ml) in PBS-0.5% BSA, 0.05% polysorbate 20, pH 7.2, was added to the plate and incubated for one hour. Two fold serial dilutions of IgG standard (1.6–100 ng/ml) or variants in PBS-0.5% BSA, 0.05% polysorbate 20, pH 6.0, were added to the plate and incubated for two hours. Bound IgG was detected using peroxidase labeled goat F(ab')_2 anti-human IgG F(ab')_2 in the above pH 6.0 buffer (Jackson ImmunoResearch, West Grove, Pa.) followed by 3,3',5,5'-tetramethyl benzidine (Kirgaard & Perry Laboratories) as the substrate. Plates were washed between steps with PBS-0.05% TWEEN 20® at either pH 7.2 or 6.0. Absorbance was read at 450 nm on a Vmax plate reader (Molecular Devices, Menlo Park, Calif.). Titration curves were fit with a four-parameter nonlinear regression curve-fitting program (KaleidaGraph, Synergy software, Reading, Pa.). Concentrations of IgG variants corresponding to the mid-point absorbance of the titration curve of the standard were calculated and then divided by the concentration of the standard corresponding to the mid-point absorbance of the standard titration curve.
Experiment [11] has the same target. The experiment in a line: FcRn ELISA, pH 6.0. This is another data set of the same source.
Procedure: as §1
Experiment [12] has as its target T6, human FcRn, biotinylated (human, UniProt P55899 24-297; P61769 21-119, biotinylated (biotin-X-NHS)).
T6 construct: Captured on streptavidin plates; IgG added at pH 6.0; also called neonatal Fc receptor
The experiment in a line: ELISA, biotin-FcRn on streptavidin, pH 6.0.
Procedure: as §1

The target of experiment [13] is T7, human FcγRIIIA-F158 α subunit extracellular domain-6His-GST fusion (human, UniProt P08637 17-208).
T7 construct: also called FcγRIIIA-Phe158; not shown: glutathione S-transferase (GST)
T7 sequence (P08637 other isoform, or with tags, fused parts or gaps, form in doubt): as the sequence (P08637 other isoform, or with tags, fused parts or gaps) above
The experiment in a line: ELISA, IgG:IgE hexamers on receptor-GST.

For experiment [14], the target named is T8, human FcγRIIA-R131 α subunit extracellular domain-6His-GST fusion (human, UniProt P12318 34-217).
T8 construct: also called FcγRIIA-Arg131; not shown: glutathione S-transferase (GST)
T8 sequence: T3 sequence
The experiment in a line: ELISA, IgG:IgE hexamers on receptor-GST.

Experiment [15] addresses T9, human FcγRIIB α subunit extracellular domain-6His-GST fusion (human, UniProt P31994 43-217).
T9 construct: not shown: glutathione S-transferase (GST)
T9 sequence: T4 sequence
The experiment is described as follows: ELISA, IgG:IgE hexamers on receptor-GST.

The target of experiment [16] is T1, human FcγRIA α subunit extracellular …. The experiment in a line: FcγRI ELISA and THP-1 cells, averaged (row shifted).
For experiment [17], the target named is T3, human FcγRIIA-Arg131 α subunit …. The experiment in a line: hexamer ELISA (row shifted).
Experiment [18] has as its target T4, human FcγRIIB α subunit extracellular …. The experiment in a line: hexamer ELISA (row shifted).
The target in experiment [19] is T5, human FcγRIIIA-Phe158 α subunit …. The experiment is described as follows: hexamer ELISA (row shifted).
Experiment [20] addresses T10, human FcγRIIA-His131 α subunit extracellular domain-His6-GST fusion (human, UniProt P12318 34-217).
T10 construct: extracellular domain; also called FcγRIIA-H131; not shown: glutathione S transferase (GST)
T10 sequence: T3 sequence with R134H
The experiment in a line: hexamer ELISA.

In experiment [21] the target is T5, human FcγRIIIA-Phe158 α subunit …. The experiment is described as follows: hexamer ELISA. This is another data set of the same source.

Changes are numbered by the printed parent chain. Numbers in names are those of the source. Where only a bound is given, the exact number is not on record here.

T1 sequence (P12314 other isoform, or with tags, fused parts or gaps): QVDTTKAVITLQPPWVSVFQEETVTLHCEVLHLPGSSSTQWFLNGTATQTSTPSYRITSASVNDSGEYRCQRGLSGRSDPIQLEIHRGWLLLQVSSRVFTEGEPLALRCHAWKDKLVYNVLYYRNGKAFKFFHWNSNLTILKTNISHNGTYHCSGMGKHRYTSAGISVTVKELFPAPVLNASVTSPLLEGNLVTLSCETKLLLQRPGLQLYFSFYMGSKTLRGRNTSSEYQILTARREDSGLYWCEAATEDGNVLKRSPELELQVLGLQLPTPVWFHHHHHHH
T6 sequence (P55899 24-297 limits assumed, chain 1 of 2): as the sequence (P55899 24-297 limits assumed, chain 1 of 2) above
T6 sequence (P61769 21-119 limits assumed, chain 2 of 2): as the sequence (P61769 21-119 limits assumed, chain 2 of 2) above

B1: recombinant humanized anti-IgE E27 IgG1 (parent antibody) (antibody)
heavy: not shown
light: DIQLTQSPSSLSASVGDRVTITCRASKPVDGEGDSYLNWYQQKPGKAPKLLIYAASYLESGVPSRFSGSGSGTDFTLTISSLQPEDFATYYCQQSHEDPYTFGQGTKVEIKRTVAAPSVFIFPPSDEQLKSGTASVVCLLNNFYPREAKVQWKVDNALQSGNSQESVTEQDSKDSTYSLSSTLTLSKADYEKHKVYACEVTHQGLSSPVTKSFNRGEC
notes: non-A allotype IgG1 Fc; E27 and all its variants were tested as monomers on FcRn and FcγRI and as hexamers with human IgE (3 E27 : 3 IgE) on FcγRIIA, FcγRIIB and FcγRIIIA; also called wt; E27 wildtype
Take B1: the “percentage of the wild type” value in [1], in experiment [3], in experiment [4] and in experiment [5] was 100% each time. Further, the binding result in [2] is on record as “binds”.

B2: anti-IgE E27 IgG1 Asn434Ala (antibody)
heavy: not shown
light: B1 light
On to B2, for which the “ratio to native IgG1” value in experiment [6] stood at 1 ratio; in [7], 0.96 ratio; in experiment [8] it was 0.97 ratio; in experiment [9], 0.77 ratio; in experiment [11], 3.46 ratio. Besides, the “fold better binding than native IgG1” value in experiment [10] was determined as 3.5 fold.

B3: anti-IgE E27 IgG1 Thr307Ala/Glu380Ala/Asn434Ala (antibody)
heavy: EVQLVESGGGLVQPGGSLRLSCAVSGYSITSGYSWNWIRQAPGKGLEWVASIKYSGETKYNPSVKGRITISRDDSKNTFYLQMNSLRAEDTAVYYCARGSHYFGHWHFAVWGQGTLVTVSSASTKGPSVFPLAPSSKSTSGGTAALGCLVKDYFPEPVTVSWNSGALTSGVHTFPAVLQSSGLYSLSSVVTVPSSSLGTQTYICNVNHKPSNTKVDKKVEPKSCDKTHTCPPCPAPELLGGPSVFLFPPKPKDTLMISRTPEVTCVVVDVSHEDPEVKFNWYVDGVEVHNAKTKPREEQYNSTYRVVSVLAVLHQDWLNGKEYKCKVSNKALPAPIEKTISKAKGQPREPQVYTLPPSREEMTKNQVSLTCLVKGFYPSDIAVAWESNGQPENNYKTTPPVLDSDGSFFLYSKLTVDKSRWQQGNVFSCSVMHEALHAHYTQKSLSLSPGK
light: B1 light
As for B3, in experiment [10], the “fold better binding than native IgG1” value stood at 13 fold.

B4: E27 IgG1 variant H434(465)A/K288(305)A (antibody)
heavy: not shown
light: B1 light
notes: also called IG2 272; Lys288Ala/Asn434Ala
Consider B4, for which the “ratio to native IgG1” value in [12] came to 2.9; in experiment [13], 0.88; in experiment [14] it was 0.94; in experiment [15], 0.96.

B5: anti-IgE E27 IgG1 Ser254Ala (antibody)
heavy: not shown
light: B1 light
As for B5, the “ratio to native IgG1” value in [16] is 0.96 ratio; in [17], 0.97 ratio; in experiment [18], 1.15 ratio; in experiment [19], 0.73 ratio; in experiment [11], less than 0.1 ratio.

B6: anti-IgE E27 IgG1 Asp270Ala (antibody)
heavy: not shown
light: B1 light
notes: also called D270(283)A
Take B6: the “reduction in binding against native IgG1” value in experiment [20] was 50%. Moreover, the “ratio to native IgG1” value was 0.76 ratio in experiment [6]; 0.06 ratio in experiment [7]; 0.1 ratio in experiment [8]; 0.14 ratio in experiment [9]; 1.05 ratio in [11].

B7: anti-IgE E27 IgG1 E318A (antibody)
heavy: not shown
light: B1 light
notes: also called Glu318Ala
As for B7, the “percentage of the wild type” value amounted to 93% in experiment [1], 113% in [3], 106% in experiment [4] and 104% in experiment [5]. Also, the binding result in [2] is recorded as “binds”.

B8: anti-IgE E27 IgG1 K320A (antibody)
heavy: not shown
light: B1 light
On to B8, for which the “percentage of the wild type” value stood at 102% in experiment [1], 94% in [3], 83% in experiment [4] and 72% in [5]. Further, the binding result in [2] is “binds”.

B9: anti-IgE E27 IgG1 Glu380Ala (antibody)
heavy: not shown
light: B1 light
With B9, the “ratio to native IgG1” value came to 1.04 ratio in [6]; 1.18 ratio in experiment [7]; 1.07 ratio in [8]; 0.92 ratio in experiment [9]; 2.19 ratio in [11]. Also, the “fold better binding than native IgG1” value in experiment [10] came out at 2 fold.

B10: anti-IgE E27 IgG1 Ser267Gly (antibody)
heavy: not shown
light: B1 light
For B10, the “reduction in binding against native IgG1” value in experiment [20] was found to be 50%. Moreover, the binding result in experiment [21] is reported as “no binding”.

B11: anti-IgE E27 IgG1 Tyr436Ala (antibody)
heavy: not shown
light: B1 light
Take B11: the “ratio to native IgG1” value in experiment [16] was 0.99 ratio; in experiment [17], 0.93 ratio; in experiment [18], 0.91 ratio; in experiment [19] it was 0.91 ratio; in experiment [11] it was less than 0.1 ratio.

B12: anti-IgE E27 IgG1 Glu380Ala/Asn434Ala (antibody)
heavy: not shown
light: B1 light
Turning to B12, the “fold better binding than native IgG1” value in experiment [10] was more than 8 fold.

B13: anti-IgE E27 IgG1 His435Ala (antibody)
heavy: not shown
light: B1 light
Regarding B13, the “ratio to native IgG1” value in experiment [16] is 1.25 ratio; in experiment [17] it was 0.77 ratio; in [18] it was 0.72 ratio; in [19], 0.78 ratio; in [11], less than 0.1 ratio.
